We go through one molecule from paper PMC7837408 (Developmental cell, 2021).

For the experiment, the target named is T1, mScarlet-V5-TurboID-Rab9a (human, UniProt P51151 1-201).
T1 sequence (looked up): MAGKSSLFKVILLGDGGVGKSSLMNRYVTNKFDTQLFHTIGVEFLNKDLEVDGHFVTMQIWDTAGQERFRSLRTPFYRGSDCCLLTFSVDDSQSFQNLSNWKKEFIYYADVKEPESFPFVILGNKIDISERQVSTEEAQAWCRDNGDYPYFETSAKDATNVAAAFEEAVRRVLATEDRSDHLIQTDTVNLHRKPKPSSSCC
The experiment is described as follows: proximity labelling.

B1: Reticulon-3L (Rtn3L), endogenous (natural protein, human (endogenous in HeLa), UniProt O95197-2 1-1013, looked up)
chain: MAEPSAATQSHSISSSSFGAEPSAPGGGGSPGACPALGTKSCSSSCAEGLSSLCSDEPSSEIMTSSFLSSSEIHNTGLTILHGEKSHVLGSQPILAKEGKDHLDLLDMKKMEKPQGTSNNVSDSSVSLAAGVHCDRPSIPASFPEHPAFLSKKIGQVEEQIDKETKNPNGVSSREAKTALDADDRFTLLTAQKPPTEYSKVEGIYTYSLSPSKVSGDDVIEKDSPESPFEVIIDKAAFDKEFKDSYKESTDDFGSWSVHTDKESSEDISETNDKLFPLRNKEAGRYPMSALLSRQFSHTNAALEEVSRCVNDMHNFTNEILTWDLVPQVKQQTDKSSDCITKTTGLDMSEYNSEIPVVNLKTSTHQKTPVCSIDGSTPITKSTGDWAEASLQQENAITGKPVPDSLNSTKEFSIKGVQGNMQKQDDTLAELPGSPPEKCDSLGSGVATVKVVLPDDHLKDEMDWQSSALGEITEADSSGESDDTVIEDITADTSFENNKIQAEKPVSIPSAVVKTGEREIKEIPSCEREEKTSKNFEELVSDSELHQDQPDILGRSPASEAACSKVPDTNVSLEDVSEVAPEKPITTENPKLPSTVSPNVFNETEFSLNVTTSAYLESLHGKNVKHIDDSSPEDLIAAFTETRDKGIVDSERNAFKAISEKMTDFKTTPPVEVLHENESGGSEIKDIGSKYSEQSKETNGSEPLGVFPTQGTPVASLDLEQEQLTIKALKELGERQVEKSTSAQRDAELPSEEVLKQTFTFAPESWPQRSYDILERNVKNGSDLGISQKPITIRETTRVDAVSSLSKTELVKKHVLARLLTDFSVHDLIFWRDVKKTGFVFGTTLIMLLSLAAFSVISVVSYLILALLSVTISFRIYKSVIQAVQKSEEGHPFKAYLDVDITLSSEAFHNYMNAAMVHINRALKLIIRLFLVEDLVDSLKLAVFMWLMTYVGAVFNGITLLILAELLIFSVPIVYEKYKTQIDHYVGIARDQTKSIVEKIQAKLPGIAKKKAE
modifications: biotinylated by TurboID in cells (sites not given)
Regarding B1, the “fold Rtn3L biotinylation, WT Rab9a against Rab9aΔFSV” value worked out at 10 fold.
